Results taken from patent publication US20150197564A1 (Regeneron, published 2015).

How the values were obtained:
hANGPTL3(17-170)-His [1] = target: T1, hANGPTL3(17-170)-His (human, UniProt Q9Y5C1 17-170); assay: SPR Biacore, antigen captured, 25C, pH 7.2, PBSP
T1 construct: also called N-terminal coiled-coil domain of hANGPTL3 with a C-terminal hexahistidine tag; Human ANGPTL3 (17-170)-His
T1 sequence: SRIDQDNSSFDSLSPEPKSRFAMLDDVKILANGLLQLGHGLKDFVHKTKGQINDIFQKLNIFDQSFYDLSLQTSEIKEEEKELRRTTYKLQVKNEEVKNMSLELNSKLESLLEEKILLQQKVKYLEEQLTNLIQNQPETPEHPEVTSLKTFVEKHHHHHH
Experimental: (§1) All kinetic binding experiments were performed at 25° C. or 37° C. on a BIACORE™ T200 label-free molecular interaction instrument (GE Healthcare) using a CM5 sensor chip. Briefly, an antigen capture surface was generated by covalently coupling either an anti-mouse IgG-specific antibody (anti-mFc; GE Healthcare; catalog #BR-1008-38) or an anti-pentahistidine-specific antibody (Qiagen; catalog #34660) to the surface of a CM5 sensor chip using a standard amine coupling method.

MfANGPTL3(17-170)-mmH [2] = target: T2, MfANGPTL3(17-170)-mmH (Macaca fascicularis); assay: SPR Biacore, antigen captured, 25C, pH 7.2, PBSP
T2 construct: also called N-terminal coiled-coil domain of ANGPTL3 from Macaca fascicularis with myc-myc-hexahistidine tag; Monkey ANGPTL3 (17-170)-mmH
T2 chain: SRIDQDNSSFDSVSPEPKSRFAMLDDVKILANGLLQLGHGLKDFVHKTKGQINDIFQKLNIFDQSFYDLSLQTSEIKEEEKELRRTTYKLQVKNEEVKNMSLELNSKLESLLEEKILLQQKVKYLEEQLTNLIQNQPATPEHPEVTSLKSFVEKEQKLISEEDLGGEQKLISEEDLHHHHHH
Experimental: as §1

hANGPTL3(17-460)-His [3] = target: T3, hANGPTL3(17-460)-His (human, UniProt Q9Y5C1 17-460); assay: SPR Biacore, antigen captured, 25C, pH 7.2, PBSP
T3 construct: Bought protein (R&D Systems); also called full-length mature human ANGPTL3 with a C-terminal decahistidine tag; Human ANGPTL3 (17-460)-His
T3 sequence: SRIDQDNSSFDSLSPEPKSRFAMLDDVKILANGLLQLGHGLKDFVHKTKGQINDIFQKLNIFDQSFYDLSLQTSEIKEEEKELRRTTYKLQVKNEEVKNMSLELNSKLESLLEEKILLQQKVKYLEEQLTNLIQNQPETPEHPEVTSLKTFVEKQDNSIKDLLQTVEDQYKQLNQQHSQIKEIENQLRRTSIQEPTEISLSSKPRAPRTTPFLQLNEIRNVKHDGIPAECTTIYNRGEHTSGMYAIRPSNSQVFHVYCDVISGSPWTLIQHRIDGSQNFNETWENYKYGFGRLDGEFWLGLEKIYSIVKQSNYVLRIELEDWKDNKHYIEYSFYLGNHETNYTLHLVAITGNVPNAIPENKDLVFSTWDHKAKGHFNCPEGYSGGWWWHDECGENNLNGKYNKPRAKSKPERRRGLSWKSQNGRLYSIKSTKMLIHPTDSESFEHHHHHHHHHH
Experimental: as §1

hANGPTL3(17-170)-His [4] = target: T1, hANGPTL3(17-170)-His; assay: SPR Biacore, antigen captured, 37C, pH 5.75, PBSP
Experimental: as §1

MfANGPTL3(17-170)-mmH [5] = target: T2, MfANGPTL3(17-170)-mmH; assay: SPR Biacore, antigen captured, 37C, pH 5.75, PBSP
Experimental: as §1

hANGPTL3(17-460)-His [6] = target: T3, hANGPTL3(17-460)-His; assay: SPR Biacore, antigen captured, 37C, pH 5.75, PBSP
Experimental: as §1

hANGPTL3(17-170)-His [7] = target: T1, hANGPTL3(17-170)-His; assay: SPR Biacore, antigen captured, 37C, pH 7.2, PBSP
Experimental: as §1

MfANGPTL3(17-170)-mmH [8] = target: T2, MfANGPTL3(17-170)-mmH; assay: SPR Biacore, antigen captured, 37C, pH 7.2, PBSP
Experimental: as §1

hANGPTL3(17-460)-His [9] = target: T3, hANGPTL3(17-460)-His; assay: SPR Biacore, antigen captured, 37C, pH 7.2, PBSP
Experimental: as §1

mANGPTL3(17-455)-His = target: T4, mANGPTL3(17-455)-His (Mus musculus, UniProt Q9R182 17-455); assay: cell-based or functional assay
T4 sequence: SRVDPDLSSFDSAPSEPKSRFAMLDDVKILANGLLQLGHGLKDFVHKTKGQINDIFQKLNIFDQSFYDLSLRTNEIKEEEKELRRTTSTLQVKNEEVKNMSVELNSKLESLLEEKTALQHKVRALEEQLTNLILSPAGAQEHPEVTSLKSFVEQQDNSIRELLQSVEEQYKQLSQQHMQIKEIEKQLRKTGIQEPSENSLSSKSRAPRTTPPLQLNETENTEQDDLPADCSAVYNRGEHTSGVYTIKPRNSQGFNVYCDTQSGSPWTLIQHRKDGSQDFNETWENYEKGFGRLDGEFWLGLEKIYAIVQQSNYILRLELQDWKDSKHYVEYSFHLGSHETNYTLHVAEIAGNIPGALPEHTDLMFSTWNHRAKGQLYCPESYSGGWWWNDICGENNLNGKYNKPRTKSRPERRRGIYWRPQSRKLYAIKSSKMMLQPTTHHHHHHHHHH

- Kd (hANGPTL3(17-170)-His [1]): 1.09 nM
- koff (hANGPTL3(17-170)-His [1]): 0.0011 s⁻¹
- kon (hANGPTL3(17-170)-His [1]): 1e+06 M⁻¹ s⁻¹
- t1/2 (hANGPTL3(17-170)-His [1]): 10.5 min
- Kd (MfANGPTL3(17-170)-mmH [2]): 0.37 nM
- koff (MfANGPTL3(17-170)-mmH [2]): 0.000538 s⁻¹
- kon (MfANGPTL3(17-170)-mmH [2]): 1.45e+06 M⁻¹ s⁻¹
- t1/2 (MfANGPTL3(17-170)-mmH [2]): 21.5 min
- Kd (hANGPTL3(17-460)-His [3]): 0.67 nM
- koff (hANGPTL3(17-460)-His [3]): 0.000402 s⁻¹
- kon (hANGPTL3(17-460)-His [3]): 599000 M⁻¹ s⁻¹
- t1/2 (hANGPTL3(17-460)-His [3]): 28.8 min
- Kd (hANGPTL3(17-170)-His [4]): 26.7 nM
- koff (hANGPTL3(17-170)-His [4]): 0.0324 s⁻¹
- kon (hANGPTL3(17-170)-His [4]): 1.22e+06 M⁻¹ s⁻¹
- t1/2 (hANGPTL3(17-170)-His [4]): 0.4 min
- Kd (MfANGPTL3(17-170)-mmH [5]): 18.8 nM
- koff (MfANGPTL3(17-170)-mmH [5]): 0.00521 s⁻¹
- kon (MfANGPTL3(17-170)-mmH [5]): 278000 M⁻¹ s⁻¹
- t1/2 (MfANGPTL3(17-170)-mmH [5]): 2.2 min
- Kd (hANGPTL3(17-460)-His [6]): 227 nM
- koff (hANGPTL3(17-460)-His [6]): 0.0107 s⁻¹
- kon (hANGPTL3(17-460)-His [6]): 47100 M⁻¹ s⁻¹
- t1/2 (hANGPTL3(17-460)-His [6]): 1.1 min
- Kd (hANGPTL3(17-170)-His [7]): 1.74 nM
- koff (hANGPTL3(17-170)-His [7]): 0.00273 s⁻¹
- kon (hANGPTL3(17-170)-His [7]): 1.57e+06 M⁻¹ s⁻¹
- t1/2 (hANGPTL3(17-170)-His [7]): 4.2 min
- Kd (MfANGPTL3(17-170)-mmH [8]): 0.7 nM
- koff (MfANGPTL3(17-170)-mmH [8]): 0.00136 s⁻¹
- kon (MfANGPTL3(17-170)-mmH [8]): 1.94e+06 M⁻¹ s⁻¹
- t1/2 (MfANGPTL3(17-170)-mmH [8]): 8.5 min
- Kd (hANGPTL3(17-460)-His [9]): 1.76 nM
- koff (hANGPTL3(17-460)-His [9]): 0.00118 s⁻¹
- kon (hANGPTL3(17-460)-His [9]): 667000 M⁻¹ s⁻¹
- t1/2 (hANGPTL3(17-460)-His [9]): 9.8 min
- IC50 (nM), LPL bioassay, 80 nM constant ANGPTL3 (mANGPTL3(17-455)-His): 14 nM
B1: H4H1276S (antibody, IgG4, V domains shown)
VH: EVQLVESGGGVIQPGGSLRLSCAASGFTFDDYAMNWVRQGPGKGLEWVSAISGDGGSTYYADSVKGRFTISRDNSKNSLYLQMNSLRAEDTAFFYCAKDLRNTIFGVVIPDAFDIWGQGTMVTVSS
VL: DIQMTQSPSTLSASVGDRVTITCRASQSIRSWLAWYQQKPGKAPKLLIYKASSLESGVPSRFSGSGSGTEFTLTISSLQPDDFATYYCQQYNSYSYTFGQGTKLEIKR
